Measured values reported in article PMC5383425, “Differential CLE peptide perception by plant receptors implicated from structural and functional analyses of TDIF-TDR interactions” (PLoS ONE, 2017).
Square brackets hold non-standard residues; d marks the D form. Ends that are not written are not given here. Hyp = O=C(O)[C@@H]1C[C@@H](O)CN1

Assays:
Test in all cases: ITC; 0.5–1 mM peptide titrated into 10–40 μM ecdTDR; 25°C; 10 mM sodium citrate, 100 mM NaCl, pH 5.5; fitted to one set of binding sites; MicroCal Auto-iTC200
Details in all cases: both partners purified
[1] = molecular target: T1, ecdTDR F161A mutant (Arabidopsis thaliana, UniProt Q9FII5 30-642, F161A)
T1 construct: TDR/PXY of A. thaliana, extracellular domain, residues 30-642; source: High Five insect cells (baculovirus), secreted, purified as the wild type (Ni-NTA, size-exclusion chromatography)
T1 sequence (looked up): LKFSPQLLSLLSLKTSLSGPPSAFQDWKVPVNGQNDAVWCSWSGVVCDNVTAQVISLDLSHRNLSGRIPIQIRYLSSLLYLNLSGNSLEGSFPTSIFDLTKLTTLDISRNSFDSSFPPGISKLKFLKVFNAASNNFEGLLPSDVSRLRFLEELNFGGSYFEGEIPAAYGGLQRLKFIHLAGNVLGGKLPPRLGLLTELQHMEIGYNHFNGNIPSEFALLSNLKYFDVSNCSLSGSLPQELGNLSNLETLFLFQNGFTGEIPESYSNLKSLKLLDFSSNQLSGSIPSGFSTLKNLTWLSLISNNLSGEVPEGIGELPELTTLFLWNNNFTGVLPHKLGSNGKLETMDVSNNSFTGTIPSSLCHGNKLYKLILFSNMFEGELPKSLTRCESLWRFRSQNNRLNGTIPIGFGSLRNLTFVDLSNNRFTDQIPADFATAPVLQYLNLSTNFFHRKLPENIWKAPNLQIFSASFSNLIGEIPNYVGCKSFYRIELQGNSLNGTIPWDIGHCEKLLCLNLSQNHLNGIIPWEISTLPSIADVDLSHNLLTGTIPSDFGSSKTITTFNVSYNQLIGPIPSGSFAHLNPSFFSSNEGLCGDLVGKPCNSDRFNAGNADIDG

[2] = molecular target: T2, ecdTDR R138E mutant (Arabidopsis thaliana, UniProt Q9FII5 30-642, R138E)
T2 construct: TDR/PXY of A. thaliana, extracellular domain, residues 30-642; source: High Five insect cells (baculovirus), secreted, purified as the wild type (Ni-NTA, size-exclusion chromatography)
T2 sequence (looked up): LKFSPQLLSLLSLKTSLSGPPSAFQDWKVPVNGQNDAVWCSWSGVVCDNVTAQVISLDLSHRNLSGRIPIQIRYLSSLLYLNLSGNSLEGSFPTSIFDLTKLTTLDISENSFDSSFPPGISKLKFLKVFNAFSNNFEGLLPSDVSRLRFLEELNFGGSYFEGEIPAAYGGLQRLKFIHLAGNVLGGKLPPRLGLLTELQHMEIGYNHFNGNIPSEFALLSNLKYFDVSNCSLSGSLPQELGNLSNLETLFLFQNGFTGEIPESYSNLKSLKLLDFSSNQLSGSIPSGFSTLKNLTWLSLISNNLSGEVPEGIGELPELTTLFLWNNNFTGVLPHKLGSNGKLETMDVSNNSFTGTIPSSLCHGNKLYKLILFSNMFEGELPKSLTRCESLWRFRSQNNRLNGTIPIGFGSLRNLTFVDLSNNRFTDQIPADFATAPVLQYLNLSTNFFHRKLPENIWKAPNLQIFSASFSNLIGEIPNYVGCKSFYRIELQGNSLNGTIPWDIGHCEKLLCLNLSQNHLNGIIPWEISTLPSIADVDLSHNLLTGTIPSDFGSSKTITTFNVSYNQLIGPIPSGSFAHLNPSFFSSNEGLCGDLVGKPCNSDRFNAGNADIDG

[3] = molecular target: T3, ecdTDR R421A mutant (Arabidopsis thaliana, UniProt Q9FII5 30-642, single alanine substitution of R421)
T3 construct: TDR/PXY of A. thaliana, extracellular domain, residues 30-642; also called single alanine substitution of R421; source: High Five insect cells (baculovirus), secreted, purified as the wild type (Ni-NTA, size-exclusion chromatography)
T3 sequence (looked up): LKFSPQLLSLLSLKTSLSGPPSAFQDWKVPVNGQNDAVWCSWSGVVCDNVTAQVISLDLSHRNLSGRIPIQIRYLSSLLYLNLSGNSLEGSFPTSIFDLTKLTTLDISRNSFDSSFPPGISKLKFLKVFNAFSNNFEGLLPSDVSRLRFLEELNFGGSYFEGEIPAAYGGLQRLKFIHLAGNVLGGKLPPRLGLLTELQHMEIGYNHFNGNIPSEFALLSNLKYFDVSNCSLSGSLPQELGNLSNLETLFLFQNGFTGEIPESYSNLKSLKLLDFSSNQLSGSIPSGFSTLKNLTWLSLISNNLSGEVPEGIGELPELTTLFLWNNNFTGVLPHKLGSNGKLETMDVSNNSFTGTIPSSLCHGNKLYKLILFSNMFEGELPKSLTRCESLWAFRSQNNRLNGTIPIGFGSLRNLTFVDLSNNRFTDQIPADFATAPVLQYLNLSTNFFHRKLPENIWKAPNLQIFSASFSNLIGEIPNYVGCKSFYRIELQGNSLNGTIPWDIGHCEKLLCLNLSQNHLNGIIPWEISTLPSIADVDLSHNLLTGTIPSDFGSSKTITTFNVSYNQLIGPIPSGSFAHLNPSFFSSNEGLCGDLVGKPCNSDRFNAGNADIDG

[4] = molecular target: T4, ecdTDR G186A mutant (Arabidopsis thaliana, UniProt Q9FII5 30-642, G186A)
T4 construct: TDR/PXY of A. thaliana, extracellular domain, residues 30-642; source: High Five insect cells (baculovirus), secreted, purified as the wild type (Ni-NTA, size-exclusion chromatography)
T4 sequence (looked up): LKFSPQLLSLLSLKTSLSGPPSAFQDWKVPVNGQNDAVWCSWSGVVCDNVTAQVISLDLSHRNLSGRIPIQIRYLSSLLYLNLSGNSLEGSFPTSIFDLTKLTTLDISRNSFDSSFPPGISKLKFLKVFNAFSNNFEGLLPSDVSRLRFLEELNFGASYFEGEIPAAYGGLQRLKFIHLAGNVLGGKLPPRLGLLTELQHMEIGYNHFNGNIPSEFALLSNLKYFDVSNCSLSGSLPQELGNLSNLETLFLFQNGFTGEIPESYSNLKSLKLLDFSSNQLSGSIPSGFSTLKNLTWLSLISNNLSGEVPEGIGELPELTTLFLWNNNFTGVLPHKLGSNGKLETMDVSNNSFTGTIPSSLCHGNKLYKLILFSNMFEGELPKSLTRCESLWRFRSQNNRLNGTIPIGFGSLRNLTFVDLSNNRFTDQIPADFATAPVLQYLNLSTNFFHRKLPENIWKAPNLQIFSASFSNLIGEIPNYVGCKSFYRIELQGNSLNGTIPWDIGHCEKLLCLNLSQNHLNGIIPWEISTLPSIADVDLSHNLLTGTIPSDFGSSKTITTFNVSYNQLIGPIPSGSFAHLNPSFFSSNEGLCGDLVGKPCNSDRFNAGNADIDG

Measured: binding result

B1: Tracheary Element Differentiation Inhibitory Factor (TDIF) peptide (peptide)
peptide: HEV[Hyp]SG[Hyp]NPISN
notes: TDIF, the 12-residue CLE peptide processed from CLE41 and CLE44 of A. thaliana; printed as HEV(Hyp)SG(Hyp)NPISN; numbers count on: the 12-residue peptide; CLE44 encodes the same peptide; also called wild type TDIF; wtTDIF; source: synthetic peptide (peptide 2.0)
binds: [1] | [2] | [3] | [4]
